Experimental data: PMC3252381, “Trypanosoma cruzi trans-Sialidase in Complex with a Neutralizing Antibody: Structure/Function Studies towards the Rational Design of Inhibitors” (PLoS Pathogens, 2012)

Legend:
[1] = molecular target: recombinant Trypanosoma cruzi trans-sialidase (construct not stated for these experiments) (Trypanosoma cruzi) (UniProt Q26966)
[2] = molecular target: T1, recombinant Trypanosoma cruzi trans-sialidase (construct not stated for these experiments) (Trypanosoma cruzi, strain  …, UniProt Q26966); test: ITC; raw data not shown; done in the laboratory of Dr. Alan Cooper; conditions not stated; conditions: both partners purified
T1 construct: trans-sialidase, Trypanosoma cruzi, GenBank L26499; enzymatically active recombinant TS; also called T. cruzi TS; source: E. coli BL21, purified (Ni-charged Hi-Trap Chelating HP, MonoQ)

[3] = molecular target: T1, recombinant Trypanosoma cruzi …; test: cell-based or functional assay
[4] = molecular target: T1, recombinant Trypanosoma cruzi …; test: SPR; BIAcore 2000; purified mAb 13G9 amine-coupled to a CM5 chip; TS (1 nM to 10 µM) injected at 50 µl/min in HBS-EP (150 mM NaCl, 0.05% P20, 10 mM HEPES pH 7.4); KD calculated from the kinetic constants; apparent; conditions: both partners purified

Binder | IC50 of inhibition of TS activity (remnant activity of 2 ng TS with sialyllactose and [14C]-lactose, increasing amounts of purified Fab) [1] [nM] | Kd [2] [nM] | IC50 of inhibition of TS activity (remnant activity of 2 ng TS with sialyllactose and [14C]-lactose, increasing amounts of whole 13G9 IgG) [3] [nM] | Kd [4] [nM]
Fab fragment of mAb 13G9 (Fab, V domains shown) VH: VKLQQSGVELVRPGTSVKMSCKAVGYTFTYDWIGWVKQRPGHGLEWIGDIYLGGGYINYNEKFKGKVILTADTSSSTAYMQLSSLTSEDSAIYYCARGHYDGSYFDYWGQGTTLTVSS VL: DVLMTQTPTIMSASIGEEITLTCSASSSVSHMHWYQHKSGTSPKLLIYITSYLASGVPSRFSGSGSGTFYSLTISSVEAEDAADYYCHQWSTFPSTFGSGTKLEIK | 1.6 |  |  | 
TS-neutralizing mouse monoclonal antibody 13G9 (IgG2aκ) (antibody, V domains shown, they are those of the Fab heavy chain in PDB 3OPZ (chain H; also I and J); rest of the mouse IgG2a heavy chain constant region beyond the Fab (hinge, CH2, CH3); the antibody was typed as IgG2aκ; they are those of the Fab light chain in PDB 3OPZ (chain L; also M and N); also called mAb 13G9; 13G9 mAb; source: 13G9 hybridoma culture supernatant; purified (Protein A-Sepharose, MonoQ) or used as …) VH: VKLQQSGVELVRPGTSVKMSCKAVGYTFTYDWIGWVKQRPGHGLEWIGDIYLGGGYINYNEKFKGKVILTADTSSSTAYMQLSSLTSEDSAIYYCARGHYDGSYFDYWGQGTTLTVSS VL: DVLMTQTPTIMSASIGEEITLTCSASSSVSHMHWYQHKSGTSPKLLIYITSYLASGVPSRFSGSGSGTFYSLTISSVEAEDAADYYCHQWSTFPSTFGSGTKLEIK |  | < 1 | 0.056 | ~0.72
